Experimental data from the Immune Epitope Database (IEDB).

Experiments:
HLA-B*18:01 = test: IEDB peptide-MHC binding, purified MHC/direct/fluorescence; filed as Kd, often an IC50 or EC50 that approximates it; ≥ and ≤ were set here for values at or beyond the usual limits of such assays
HLA-B*39:01 [1] = test: as above
HLA-B*58:01 = test: as above
HLA-B*40:01 = test: as above
HLA-B*27:05 = test: as above
HLA-B*57:01 [2] = test: as above
HLA-B*48:01 = test: as above
HLA-B*08:01 [3] = test: as above
HLA-A*69:01 = test: as above
HLA-A*31:01 [4] = test: as above
HLA-A*11:01 = test: as above
HLA-B*46:01 = test: as above
HLA-B*15:09 [5] = test: as above
HLA-A*01:01 = test: as above
HLA-B*15:17 [6] = test: as above
HLA-B*38:01 = test: as above
HLA-B*07:02 = test: as above
HLA-B*15:01 = test: as above
HLA-A*03:01 = test: as above
HLA-A*02:01 = test: as above
HLA-A*02:03 = test: IEDB peptide-MHC binding, purified MHC/competitive/fluorescence; filed as Kd, often an IC50 or EC50 that approximates it; ≥ and ≤ were set here for values at or beyond the usual limits of such assays; details: source organism: Influenza A virus (A/swine/Italy/1521/98(H1N2))
HLA-B*51:01 = test: IEDB peptide-MHC binding, purified MHC/direct/fluorescence; filed as Kd, often an IC50 or EC50 that approximates it; ≥ and ≤ were set here for values at or beyond the usual limits of such assays
HLA-A*26:01 [7] = test: as above; details: source organism: Influenza A virus(A/swine/Shandong/fNY/2003(H9N2))
HLA-B*08:01 [8] = test: IEDB peptide-MHC binding, purified MHC/competitive/fluorescence; filed as Kd, often an IC50 or EC50 that approximates it; ≥ and ≤ were set here for values at or beyond the usual limits of such assays
HLA-B*15:17 [9] = test: as above
HLA-C*07:02 = test: IEDB peptide-MHC binding, purified MHC/direct/fluorescence; filed as Kd, often an IC50 or EC50 that approximates it; ≥ and ≤ were set here for values at or beyond the usual limits of such assays; details: source organism: Canis lupus familiaris
HLA-C*04:01 = test: as above; details: source organism: Canis lupus familiaris
HLA-A*24:03 = test: as above; details: source organism: Marburg virus - Musoke, Kenya, 1980
HLA-B*08:02 = test: as above; details: source organism: Ravn virus - Ravn, Kenya, 1987
HLA-A*23:01 = test: as above; details: source organism: Marburg virus - Musoke, Kenya, 1980
HLA-C*08:02 = test: as above; details: source organism: Orthomarburgvirus marburgense
HLA-B*39:01 [10] = test: IEDB peptide-MHC binding, purified MHC/competitive/fluorescence; filed as Kd, often an IC50 or EC50 that approximates it; ≥ and ≤ were set here for values at or beyond the usual limits of such assays; details: source organism: Orthomarburgvirus marburgense
HLA-A*02:06 = test: as above; details: source organism: Orthomarburgvirus marburgense
HLA-B*57:01 [11] = test: as above; details: source organism: Orthomarburgvirus marburgense
HLA-A*26:02 = test: as above; details: source organism: Orthomarburgvirus marburgense
HLA-A*68:02 = test: as above; details: source organism: Orthomarburgvirus marburgense
HLA-B*15:09 [12] = test: as above
HLA-A*26:01 [13] = test: as above; details: source organism: Orthomarburgvirus marburgense
HLA-A*24:02 = test: IEDB peptide-MHC binding, purified MHC/direct/fluorescence; filed as Kd, often an IC50 or EC50 that approximates it; ≥ and ≤ were set here for values at or beyond the usual limits of such assays; details: source organism: Influenza A virus (A/G.H/HK/793.1/02 (H5N1))
HLA-B*44:02 = test: as above; details: source organism: Influenza A virus (A/G.H/HK/793.1/02 (H5N1))
HLA-A*30:01 = test: IEDB peptide-MHC binding, purified MHC/competitive/fluorescence; filed as Kd, often an IC50 or EC50 that approximates it; ≥ and ≤ were set here for values at or beyond the usual limits of such assays; details: source organism: Vibrio cholerae O1 biovar El Tor str. N16961
HLA-A*31:01 [14] = test: as above; details: source organism: Vibrio cholerae O1 biovar El Tor str. N16961
[15] = source organism: Influenza A virus (A/swine/Korea/S190/2004(H9N2))
[16] = source organism: Influenza A virus H3N2
[17] = source organism: Influenza A virus (A/Wisconsin/4755/1994(H1N1))
[18] = source organism: Influenza A virus(A/swine/Shandong/fNY/2003(H9N2))
[19] = source organism: Marburg virus - Musoke, Kenya, 1980
[20] = source organism: Orthomarburgvirus marburgense
[21] = source organism: Influenza A virus (A/G.H/HK/793.1/02 (H5N1))
[22] = source organism: Vibrio cholerae
[23] = source organism: Vibrio cholerae V52
[24] = source organism: Vibrio cholerae O1 biovar El Tor str. N16961

Measured: Kd

WIPKRNRSI
0.644 µM: HLA-B*07:02; [15]
0.018 µM: HLA-B*08:01 [3]; [16]
≥ 20 µM: HLA-B*18:01; [15] | HLA-B*39:01 [1]; [16] | HLA-B*58:01; [15] | HLA-B*40:01; [15] | HLA-B*27:05; [15] | HLA-B*57:01 [2]; [15] | HLA-B*48:01; [15] | HLA-A*69:01; [15] | HLA-A*31:01 [4]; [15] | HLA-A*11:01; [15] | HLA-B*46:01; [15] | HLA-B*15:09 [5]; [16] | HLA-A*01:01; [15] | HLA-B*15:17 [6]; [15] | HLA-B*38:01; [16] | HLA-B*15:01; [15] | HLA-A*03:01; [15] | HLA-A*02:01; [15] | HLA-A*02:03

ITKEKKEEL
≥ 20 µM: HLA-B*18:01; [17] | HLA-B*39:01 [1]; [18] | HLA-B*58:01; [17] | HLA-B*40:01; [17] | HLA-B*27:05; [17] | HLA-B*57:01 [2]; [17] | HLA-B*48:01; [17] | HLA-A*69:01; [17] | HLA-A*31:01 [4]; [17] | HLA-A*11:01; [17] | HLA-B*46:01; [17] | HLA-B*15:09 [5]; [18] | HLA-A*01:01; [17] | HLA-B*51:01; [17] | HLA-A*26:01 [7] | HLA-B*38:01; [18] | HLA-B*07:02; [17] | HLA-B*15:01; [17] | HLA-A*03:01; [17] | HLA-A*02:01; [17] | HLA-B*15:17 [9]; [16]
4.81 µM: HLA-B*08:01 [8]; [16]

HYNAFHWAI
0.047 µM: HLA-C*07:02
≥ 20 µM: HLA-C*04:01

YLAPSYRNF
3.98 µM: HLA-B*15:17 [9]; [20]
0.0165 µM: HLA-A*24:03
0.023 µM: HLA-A*23:01
0.0042 µM: HLA-A*26:02
0.43 µM: HLA-B*58:01; source organism: Ravn virus - Ravn, Kenya, 1987
≥ 20 µM: HLA-B*18:01; [19] | HLA-A*69:01; [19] | HLA-B*08:02 | HLA-A*31:01 [4]; [19] | HLA-A*11:01; [19] | HLA-A*01:01; [19] | HLA-C*08:02 | HLA-B*07:02; [19] | HLA-B*39:01 [10] | HLA-A*02:06 | HLA-B*57:01 [11] | HLA-B*15:09 [12]; [20]
5.13 µM: HLA-A*26:01 [13]
3.22 µM: HLA-A*68:02

RRKTNLYGF
≥ 20 µM: HLA-B*18:01; [21] | HLA-B*58:01; [21] | HLA-B*40:01; [21] | HLA-A*24:02 | HLA-B*08:01 [3]; [21] | HLA-B*44:02 | HLA-A*11:01; [21] | HLA-B*46:01; [21] | HLA-B*15:09 [5]; source organism: Influenza A virus (A/Taiwan/2/2006(H1N1)) | HLA-A*01:01; [21] | HLA-B*07:02; [21] | HLA-B*15:01; [21] | HLA-A*03:01; [21] | HLA-A*02:01; [21]
0.021 µM: HLA-B*27:05; source organism: Influenza A virus (A/Puerto Rico/8/34/Mount Sinai(H1N1))

YLKKGRLSL
5.06 µM: HLA-B*46:01; [22]
0.053 µM: HLA-B*15:01; [23]
1.49 µM: HLA-A*30:01
≥ 20 µM: HLA-B*18:01; [22] | HLA-B*39:01 [1]; [23] | HLA-B*58:01; [22] | HLA-B*40:01; [22] | HLA-B*27:05; [22] | HLA-B*57:01 [2]; [22] | HLA-B*48:01; [22] | HLA-A*69:01; [22] | HLA-A*11:01; [22] | HLA-A*01:01; [22] | HLA-B*51:01; [22] | HLA-B*15:17 [6]; [22] | HLA-A*03:01; [22] | HLA-A*31:01 [14] | HLA-B*15:09 [12]; [24]
0.0532 µM: HLA-B*08:01 [8]; [24]
0.123 µM: HLA-B*07:02; [22]
